Assay: yeast display, Sf9 membrane polyspecificity reagent, FACS + sequencing; frameworks hold sequencing errors
How it was run: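 In a synthetic yeast display library (Saccharomyces cerevisiae BJ5465), nanobody expression was induced with galactose for 36–48 hours. FACS gates were set low and high (top ~1%) using anti-HA fluorescence for expression and streptavidin fluorescence for binding of the Sf9 membrane reagent. Each polyreactivity label is drawn from the gate of origin.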
For “QVQLVESGGGLVQAGGSLRLSCAASGSIFYFNAMGWYRQAPGKERELVATIRSGDGRTYYADSVKGRFTISRDNAKNTVYLQMNSLKPEDTAVYYCNASRVVYRQAYLYGYDYWGQGTQVTVSS”, the “polyreactivity (PSR sort gate)” value was “low polyreactivity”. With “QVQLVESGGGLVQAGGSLRLSCAASGSIFYFYAMGGYRQAPGKERELVAAIRSSDGITYYADSVKGRFTISRDNAKNTVYLQMNSLKPEDTAVYYCAALVRDFYNWDTLYYWGQGTQVTVSS” the “polyreactivity (PSR sort gate)” value was “low polyreactivity”. In the case of “QVQLVESGGGLVQAGGSLRLSCAASGSIFYFYAMGWYRQAPGKERELVAAISSRGTSTYYADSVKGRFTISRDNAKNTVYLQMNSLKPEDTAVYYCAAQIYVYYQRRPPYDYWGQGTQVTVSS”, the “polyreactivity (PSR sort gate)” value is reported as “high polyreactivity”. For “QVQLVESGGGLVQAGGSLRLSCAASGSIFYGNAMGWYRQAPGKERELVAAISGSGGRTYYADSVKGRFTISRDNAKNTVYLQMISLKTEDTAVYYCAASAPGGQDDYWGQGTQVTVSS”, the “polyreactivity (PSR sort gate)” value was “high polyreactivity”. With “QVQLVESGGGLVQAGGSLRLSCAASGSIFYGNAMGWYRQAPGKERELVAAISQSGSRTYYADSVKGRFTISRDNAKNTVYLQMNSLKPEDTAVYYCAARARIYNYWGQGTQVTVSS” the “polyreactivity (PSR sort gate)” value was “high polyreactivity”. In the case of “QVQLVESGGGLVQAGGSLRLSCAASGSIFYGNAMGWYRQAPGKERELVAAISTRGGSTYYADSVKGRFTISRDYAKNTVYLQMNSLKPEDTAVYYCNADSRRRLFDYWGQGTQVTVSS”, the “polyreactivity (PSR sort gate)” value is reported as “high polyreactivity”. In the case of “QVQLVESGGGLVQAGGSLRLSCAASGSIFYGYAMGWYRQAPGKEREFVAGIDSSGGSTSYADSVKGRFTISRDNAKNTVYLQMNSLKPEDTAVYYCAKQIVSGRRVDRNDYWGQGTQVTVSS”, the “polyreactivity (PSR sort gate)” value is reported as “low polyreactivity”. In the case of “QVQLVESGGGLVQAGGSLRLSCAASGSIFYGYAMGWYRQAPGKERELVAAISLSGGRTYYADSVKGRFTLSRDNAKNPVYLQRNSLKPEDTAVYYCAAQTRSSDGPSWYYYWGQGTQVTVSS”, the “polyreactivity (PSR sort gate)” value is reported as “high polyreactivity”. In the case of “QVQLVESGGGLVQAGGSLRLSCAASGSIFYGYAMGWYRQAPGKERELVASITGSGGSTSYADSVKGRFTISRDNAKNTVYLQMNSLKPEDTAVYYCNTVLLQLYKLASGYDYWGQGTQVTVSS”, the “polyreactivity (PSR sort gate)” value is reported as “high polyreactivity”. With “QVQLVESGGGLVQAGGSLRLSCAASGSIFYGYTMGWYRQAPGKERELVAGITRSGTSTYYADSVKGRFTISRDNAKNTVYLQMNSLNPQDTAVYYCARVGLSKRYGSWGQGTEVTVSS” the “polyreactivity (PSR sort gate)” value was “high polyreactivity”. With “QVQLVESGGGLVQAGGSLRLSCAASGSIFYHYAMGWYIQAPGKERELVAAISWRGASTYYADSVKGRFTISRDNAKNTVYLQMNSLKPEDTAVYYCARLSSSHPLYRDDYWGQGTQVTVSS” the “polyreactivity (PSR sort gate)” value was “high polyreactivity”. For “QVQLVESGGGLVQAGGSLRLSCAASGSIFYHYAMGWYRQAPGKDRELVADITQSGGTTDYADSVKGRFTISRYNAKNTVYLQMNSLKPEDTAVYYCAADGDTTSPTYYIFWSGEFDYWGQGNQVTVSS”, the “polyreactivity (PSR sort gate)” value was “low polyreactivity”. With “QVQLVESGGGLVQAGGSLRLSCAASGSIFYHYAMGWYRQAPGKERELVAAISRSGGRTYYADSVKGRFTISRDNAKNTVYLQMNSLKPEDTAVYYCAAGTSWPWYQRDYWGQGTQVTVSS” the “polyreactivity (PSR sort gate)” value was “low polyreactivity”. For “QVQLVESGGGLVQAGGSLRLSCAASGSIFYINAMGWYRQAPGKEREFVATITWSGDSTYYADSVKGRFTISRDNAKNTVYLQMNSLKPDDTAVYYCNARKQYPSYVDWEYDYWGQGTQVTVSS”, the “polyreactivity (PSR sort gate)” value was “low polyreactivity”. With “QVQLVESGGGLVQAGGSLRLSCAASGSIFYINAMGWYRQAPGKERELGAAITSDGSTYYADSVKGRFTISRDKAKHTVYLQMNSLKPEDTAVYYCAADLTSDQFLYYWYWFYSWGQGTQVTVSS” the “polyreactivity (PSR sort gate)” value was “low polyreactivity”. For “QVQLVESGGGLVQAGGSLRLSCAASGSIFYINAMGWYRQAPGKERELVAAINRGGSTNYADSVKGRFTISRDNAKNTVYLQMYSLKPEDTAVYYCAAYIYKTYRYYYWGQGTQVTVSS”, the “polyreactivity (PSR sort gate)” value was “high polyreactivity”. With “QVQLVESGGGLVQAGGSLRLSCAASGSIFYINPMGWYRQAPGKERELVAAINFSDGRTYYADSVKGRFTISRDNAKNTVYLQMNSLKPEDTAVYYCAAAVYPSEYDYWGQGTQVTVSS” the “polyreactivity (PSR sort gate)” value was “low polyreactivity”. With “QVQLVESGGGLVQAGGSLRLSCAASGSIFYINTMGWYRQAPGKEREMVATIRTSGGSTYADSVKGRFTISRDNAKNTVYLQMNSLKPEDTAVYYCAVRRYRSSSYGYYSWGQGTQVTVSS” the “polyreactivity (PSR sort gate)” value was “high polyreactivity”. In the case of “QVQLVESGGGLVQAGGSLRLSCAASGSIFYKNAMGWYRQAPGKVRELVAAITGSGGRTYYADSVKGRFTISRDNAKNTVYLQMNSLKPEDTAVYYCNTDPSPRYRYDYWGQGTQVTVSS”, the “polyreactivity (PSR sort gate)” value is reported as “high polyreactivity”. For “QVQLVESGGGLVQAGGSLRLSCAASGSIFYKNVMGWYRQAPGKEREFVAAISSSGGSTYYADSVKGRFTISRDNAKNTVYLQMNSLKPEDTAVYYCAATGWGLFRRRYDYWGQGTQVTVSS”, the “polyreactivity (PSR sort gate)” value was “low polyreactivity”. In the case of “QVQLVESGGGLVQAGGSLRLSCAASGSIFYKYALGWYRQAPGKERELVASITWSDGNTNYADSVKGRFTISRDNAKNTVYLQMNSLKPEDTAVYYCADGGWYPTSRIFDYWGQGTQVTVSS”, the “polyreactivity (PSR sort gate)” value is reported as “low polyreactivity”. In the case of “QVQLVESGGGLVQAGGSLRLSCAASGSIFYKYAMGWYRQAPGKERELVAAISTSGGSTYYADSVKGRFTISRDNAKNTVYLQMNSLKPEDTAVYYCAKARSYGLGRSYYWGQGTQVTVSS”, the “polyreactivity (PSR sort gate)” value is reported as “high polyreactivity”. With “QVQLVESGGGLVQAGGSLRLSCAASGSIFYKYMGWYRQAPGKERELVAAITWSGGSTYYADSVKGRFTISRDNAKNTVYLQMNSLKPEDTAVYYCAARDYTRYGYGYWGQGTQVTVSS” the “polyreactivity (PSR sort gate)” value was “high polyreactivity”. For “QVQLVESGGGLVQAGGSLRLSCAASGSIFYLYAMGWYRHAPGKERELVATITVSGSSTYADSVKGRFTISRDNAKNTVYLQMISLKPEDTAVYYCAADGGRQVYTQLYDYWGQGTQVTVSS”, the “polyreactivity (PSR sort gate)” value was “low polyreactivity”. For “QVQLVESGGGLVQAGGSLRLSCAASGSIFYLYAMGWYRPAPGKERELVAAISSGGSTYYADSVKGRFTISRDNAKNTVYLQMNSLKPEDTAVYYCNADSYYYPYDYWGQGTQVTVSS”, the “polyreactivity (PSR sort gate)” value was “low polyreactivity”. In the case of “QVQLVESGGGLVQAGGSLRLSCAASGSIFYLYAMGWYRQAPGKERELVAAINFRGGSTYADSVKGRFTISRDNAKNTVYLQMNSLKPEDTAVYYCAAKADYRMNYWGQGTQVTVSS”, the “polyreactivity (PSR sort gate)” value is reported as “high polyreactivity”. In the case of “QVQLVESGGGLVQAGGSLRLSCAASGSIFYLYAMGWYRQAPGKERELVARITWSGGRTFYADSVKGRFTISRDNAKNTVYLQMNSLKPEDTAVYYCNARYHGKYDYWGQGTQVTVSS”, the “polyreactivity (PSR sort gate)” value is reported as “high polyreactivity”. With “QVQLVESGGGLVQAGGSLRLSCAASGSIFYLYAMGWYRQAPGKERELVATISLSSGSTYAASVKGRFTISRDNAKNTVYLQMNSLKPEDTAVDYCAKDLTRWGYNEYDYWGQGTQVSVSS” the “polyreactivity (PSR sort gate)” value was “low polyreactivity”. With “QVQLVESGGGLVQAGGSLRLSCAASGSIFYLYTMGWYRQATRKERELVAGISNGDRTYYADSVKGRFTISRDNAKNTVYFQMNSLKPEDTAVYYCAKGWYRIKRNDYWGQGTQVTVAS” the “polyreactivity (PSR sort gate)” value was “low polyreactivity”. For “QVQLVESGGGLVQAGGSLRLSCAASGSIFYLYVMGWYRQAPGKERELVAAINWSGSRTYYADSVKGRFTISRDNAKNTVYLQMNSLKPEDTAVYYCNAVRATGQASQEGEYWGQGTQVTVSS”, the “polyreactivity (PSR sort gate)” value was “high polyreactivity”. With “QVQLVESGGGLVQAGGSLRLSCAASGSIFYNNSKGWYRPAPGKERELVAAISLRGGSTYYADSVKGRFTISRDNAKNTVYLQMNSLKPEDSAVYYCAAVTGARYYPARASRGKFDYWGQGTQVTVSS” the “polyreactivity (PSR sort gate)” value was “high polyreactivity”. In the case of “QVQLVESGGGLVQAGGSLRLSCAASGSIFYNYAMGWSRQAPGKERELVAAITANTGSTYYADSVKGRFTISRVNAKNTVYLQMNSLKPEDTAVYYCATTWTIRRYRYSPRLVDYWGQGTQVTVSS”, the “polyreactivity (PSR sort gate)” value is reported as “low polyreactivity”. For “QVQLVESGGGLVQAGGSLRLSCAASGSIFYNYAMGWYRQAPGKERELVAAISQSGGSTRYADSVKGRFTISRDNAKNTVYVQMNSLKPEDTAVYYCAASRRKGQGSAGFGYWGQGTQVTVSS”, the “polyreactivity (PSR sort gate)” value was “high polyreactivity”. In the case of “QVQLVESGGGLVQAGGSLRLSCAASGSIFYNYAMGWYRQAPGKERELVAAISSNGGSTYYADSVKGRFTISRDNAKNTVYLQMNSLKPEDTAVYYCAKYLSPGERHSYDYWGQGTQVTVSS”, the “polyreactivity (PSR sort gate)” value is reported as “high polyreactivity”. With “QVQLVESGGGLVQAGGSLRLSCAASGSIFYNYGMGWYRQAPGKERELVAAIRASGDSTYYADSVKGRFTISRDNAKNTVYLQMNSLKPEDTAVYYCAARPNQSYYGLYFYWGQGTQVTVSS” the “polyreactivity (PSR sort gate)” value was “low polyreactivity”. With “QVQLVESGGGLVQAGGSLRLSCAASGSIFYPNAMGWYRQAPGKERELVAAISSSGGTNYADSVKGRFTISRDNAKNTVYLQMNSLKPEDTAVYYCNARDKVRYRYSRMDYWGQGTQVTVSS” the “polyreactivity (PSR sort gate)” value was “low polyreactivity”. With “QVQLVESGGGLVQAGGSLRLSCAASGSIFYPNAMGWYRQAPGKERELVAAITTGGSTNYADSVKGRFTISRDNAKNTVYLQMNSLKPEDTAVYYCNARHRYHSYTQPRWKYDYWGQGTQVTVSS” the “polyreactivity (PSR sort gate)” value was “low polyreactivity”. In the case of “QVQLVESGGGLVQAGGSLRLSCAASGSIFYPYAMGWYRPAPGKERELVASITINDGSTYYADSVKGRFTISRDNAKNTVYLQMNSLKPEDTAVYYCNVEPVPGFGSEYEYWGQGTQVTVSS”, the “polyreactivity (PSR sort gate)” value is reported as “low polyreactivity”. With “QVQLVESGGGLVQAGGSLRLSCAASGSIFYPYAMGWYRQAPGKERELVAAIDYSDGSTYYADSVKGRFTISRDNAKNTVYLQMNSLKPEDTAVYYCAADGTYVWGSEEGNYWGQGTQVTVSS” the “polyreactivity (PSR sort gate)” value was “low polyreactivity”. In the case of “QVQLVESGGGLVQAGGSLRLSCAASGSIFYPYAMGWYRQAPGKERELVAAIRWRGGNTYYADSVKGRFTFSRDNAKNTVYLQMNSLKPEDTAVYYCAADGKYLQGFGYYYWGQGTQVTVSS”, the “polyreactivity (PSR sort gate)” value is reported as “high polyreactivity”. In the case of “QVQLVESGGGLVQAGGSLRLSCAASGSIFYPYAMGWYRQAPGKERELVAAISSGGTTYYADSVKGRFTISRDNAKNTVYLQMNSLKPEDTAVYYCAAGFYLRAVWMDYWGQGTQVTVSS”, the “polyreactivity (PSR sort gate)” value is reported as “high polyreactivity”. With “QVQLVESGGGLVQAGGSLRLSCAASGSIFYQNAMGWYRQAPGKEREFVAAIRSSGSSTYYADSVKGRFTISRDNAKNTVYVQMNCLKPEDTAVYYCAADNPGGYRGKVDYWGQGTQVTVSS” the “polyreactivity (PSR sort gate)” value was “high polyreactivity”. For “QVQLVESGGGLVQAGGSLRLSCAASGSIFYQYAMGWYRQAPGKERELVAAISRSGGSTYYADSVKGRFTISRDNPKNTVYLQMNSLKPEDTAGYYCAARAVRAAYDYWGQGSQVTVSS”, the “polyreactivity (PSR sort gate)” value was “low polyreactivity”.

From the nanobody polyreactivity screen of Harvey et al. (2022)
